The assay concerns the target T1, human cathepsin L (human).
T1 construct: cathepsin L, human, bought from Calbiochem; active enzyme used at 0.3 nM; source: bought: Calbiochem
The assay is described as follows: enzyme inhibition assay (residual activity on the fluorogenic substrate Z-Phe-Arg-MCA); cathepsin B or L (0.3 nM) incubated 5 min at 37°C with varied inhibitor in 100 mM sodium acetate pH 5.5, 2.5 mM DTT; substrate 0.01 mM; triplicate; Ki(app) by non linear regression (GraFit), Ki by Morrison's procedure. As to conditions: both partners purified.

B1: Oryzacystatin-1 N-terminal deletion (NΔ) (natural protein)
chain: MSSDGGPVGNENDLHLVDLARFAVTEHNKKANSLLEFEKLVSVKQQVVAGTLYYFTIEVKEGDAKKLYEAKVWEKPWMDFKELQEFKPVDASANA
Turning to B1, the Ki is 5.66 nM.

Source of the values: paper PMC2959088, “Molecular determinants of improved cathepsin B inhibition by new cystatins obtained by DNA shuffling” (BMC Structural Biology, 2010).
